Assay results taken from publication PMC6949223.

Experiments:
[1] = Transwell migration, MDA-MB-231 and BT-549 rescue lines; conditions: glycan lost; control: SGK196-WT re-expressed in shSGK196 cells
[2] = protein stability in MDA-MB-231 and BT-549 (Fig. S2C); conditions: glycan lost; control: SGK196-WT
[3] = anti-HA immunofluorescence, MDA-MB-231 and BT-549; conditions: glycan lost; control: SGK196-WT
[4] = Matrigel Transwell invasion, MDA-MB-231 and BT-549 rescue lines; conditions: glycan lost; control: SGK196-WT re-expressed in shSGK196 cells

B1: SGK196: SGK196-4NQ (protein)
parent chain: MEKQPQNSRRGLAPREVPPAVGLLLIMALMNTLLYLCLDHFFIAPRQSTVDPTHCPYGHFRIGQMKNCSPWLSCEELRTEVRQLKRVGEGAVKRVFLSEWKEHKVALSQLTSLEMKDDFLHGLQMLKSLQGTHVVTLLGYCEDDNTMLTEYHPLGSLSNLEETLNLSKYQNVNTWQHRLELAMDYVSIINYLHHSPVGTRVMCDSNDLPKTLSQYLLTSNFSILANDLDALPLVNHSSGMLVKCGHRELHGDFVAPEQLWPYGEDVPFHDDLMPSYDEKIDIWKIPDISSFLLGHIEGSDMVRFHLFDIHKACKSQTPSERPTAQDVLETYQKVLDTLRDAMMSQAREML
For B1, the “other: suppression of cell migration” value [1] was “decreases”, the degradation_or_half_life [2] was “no change” and the localisation_or_trafficking [3] was “no change”. The “other: suppression of cell invasion” value [4] was “decreases”.
